# Laboratory results: patent EP4663199A1 (Strike Pharma AB, dated 2025)
# B1: bispecific binding molecule comprising a first specific binding molecule (comprising SEQ ID NO:265 a (bispecific antibody)
# VH: EVQLLESGGGLVQPGGSLRLSCAASGFTFSSYAMSWVRQAPGKGLEWVSGISGYSGSTYYADSVKGRFTISRDNSKNTLYLQMNSLRAEDTAVYYCARYYSYYGYYYFDYWGQGTLVTVSS
# VL: DIQMTQSPSSLSASVGDRVTITCRASQSISSYLNWYQQKPGKAPKLLIYAASSLQSGVPSRFSGSGSGTDFTLTISSLQPEDFATYYCQQGYPYPFTFGQGTKLEIK
# scFv: QVQLVQSGAEVKKPGASVKVSCKASGFNIKDFNIHWVRQAPGQGLEWIGRIDPESGDAEYVPKFQGRVTMTRDTSTSTVYMELSSLRSEDTAVYYCTTGSYDLDVEYWGQGTLVTVSSGGGGSGGGGSGGGGSGGGGSDIQMTQSPSSLSASVGDRVTITCHASQNINVWLSWYQQKPGKAPKLLIYKASTLHTGVPSRFSGSGSGTDFTLTISSLQPEDFATYYCQQGQSYPLTFGQGTKLEIK
# How the values were obtained:
# [1] = target: peptide SEQ ID NO:236 (tag moiety …, GGS spacers, cargo peptide)
# [2] = target: peptide SEQ ID NO:237 (tag moiety …, GGS spacer, cargo peptide)
# [3] = target: peptide SEQ ID NO:240 (tag moiety …, no spacer, cargo peptide)
# [4] = target: peptide SEQ ID NO:243 (tag moiety …, GGS spacer, cargo peptide)
# [5] = target: peptide SEQ ID NO:228 (tag moiety …, AAY spacers, cargo peptide)
# [6] = target: peptide SEQ ID NO:230 (tag moiety …, GGS spacers, cargo peptide)
# [7] = target: peptide SEQ ID NO:234 (tag moiety …, AAY spacers, cargo peptide)
# [8] = target: peptide SEQ ID NO:235 (tag moiety […], AAA spacers, cargo peptide)
binder,measurement,setting,value
B1,Kd,[1],0.012 nM
same,Kd,[2],0.076 nM
same,Kd,[3],0.0055 nM
same,Kd,[4],0.0027 nM
same,Kd,[5],0.0078 nM
same,Kd,peptide,0.012 nM
same,Kd,[6],0.016 nM
same,Kd,[7],0.017 nM
same,Kd,[8],0.011 nM
